Experimental findings from patent publication US20100202970A1 are described below.

Assay [1] deals with PKC substrate C-terminally tagged with the yellow fluorescent protein YPet. In words: cell-based or functional assay.
The target in assay [2] is PKA substrate (modified Kemptide containing a consensus phosphorylation site for Protein Kinase A) C-terminally tagged with the yellow fluorescent protein YPet. Nature of the assay: cell-based or functional assay.

Consider “FHA1 (forkhead associated domain 1 of the yeast protein Rad53) tagged at its N-terminus with the cyan fluorescent protein Cerulean (from UniProt P22216 22-162)”, for which the increase in yellow/cyan emission ratio (intermolecular FRET) after PMA in 1205-Lu cells co-expressing both constructs in assay [1] was 30%. In addition, in assay [2], the increase in yellow/cyan emission ratio (intermolecular FRET) after Forskolin in 1205-Lu cells co-expressing both constructs came to 60%.
